In assay [1] the target is SARS-CoV-1 spike on pseudovirus (SARS-CoV-1) (UniProt P59594). Put plainly: cell-based or functional assay.
In assay [2] the target is SARS-CoV-2 spike on pseudovirus or live virus (USA-WA1/2020, WT) (SARS-CoV-2) (UniProt P0DTC2). Description: cell-based or functional assay.

In assay [1], REGN10933 (antibody) registered a PSV in HeLa-ACE2 cells IC50 above 25000 ng/mL. In assay [2], this substance displayed a PSV in HeLa-ACE2 cells IC50 of 6 ng/mL, a live virus IC50 (HeLa-ACE2) of 2 ng/mL and a live virus IC50 (Vero) of 1 ng/mL.
Take REGN10987 (antibody): the PSV in HeLa-ACE2 cells IC50 in assay [1] is above 25000 ng/mL. In addition, in assay [2], the PSV in HeLa-ACE2 cells IC50 was 93 ng/mL, the live virus IC50 (HeLa-ACE2) is 5 ng/mL and the live virus IC50 (Vero) came out at 1 ng/mL.

Values taken from patent publication US20230357364A1.
